Measurements: patent US20200114017A1 (BIONOMICS, published 2020)

T1: human LGR5 (leucine-rich repeat containing G-protein-coupled receptor 5) (human, UniProt O75473 22-561)
T1 sequence: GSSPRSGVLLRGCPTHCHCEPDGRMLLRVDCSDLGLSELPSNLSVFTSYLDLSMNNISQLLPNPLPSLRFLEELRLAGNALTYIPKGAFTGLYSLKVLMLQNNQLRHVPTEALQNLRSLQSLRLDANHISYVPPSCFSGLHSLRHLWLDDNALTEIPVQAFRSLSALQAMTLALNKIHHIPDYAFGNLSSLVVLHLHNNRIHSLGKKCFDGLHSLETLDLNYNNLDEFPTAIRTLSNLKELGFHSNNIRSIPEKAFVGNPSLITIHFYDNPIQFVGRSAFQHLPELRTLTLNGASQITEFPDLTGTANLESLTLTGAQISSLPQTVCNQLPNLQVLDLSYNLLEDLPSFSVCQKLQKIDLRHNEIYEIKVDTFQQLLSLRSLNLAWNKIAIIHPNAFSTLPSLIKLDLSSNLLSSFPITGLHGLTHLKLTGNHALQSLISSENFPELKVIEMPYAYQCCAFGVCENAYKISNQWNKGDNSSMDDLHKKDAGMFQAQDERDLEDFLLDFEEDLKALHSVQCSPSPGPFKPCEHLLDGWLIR


Tests used:
[1] = molecular target: T1, human LGR5 (leucine-rich repeat …); test: cell-based or functional assay
[2] = molecular target: T1, human LGR5 (leucine-rich repeat …); test: FACS on CHO cells expressing recombinant LGR5

EC50 [2] [nM] | Binder | IC50 (nM) of cell viability, MTS assay, primary antibody + secondary ADC (NL-MMAF) [1] [nM]
 | 18G7Ch (antibody, human IgG1, kappa, V domains shown) VH: QVQLQQSGAELVKPGASVKISCKATGYTFSGYWIEWVKQRPGHGLEWIGEILPGSDSTNYNEKFKGKATFTADTSSNTVYMQFSSLTSEDSAVYYCARSGYYGSSQYWGQGTTLTVSS VL: NIVLTQSPASLAVSLGQRATISCRASESVDSYGNSFMHWYQQKPGQPPKLLIYLTSNLESGVPARFSGSGSRTDFTLTIDPVEADDAATYYCQQNNEDPRTFGGGTKLEIKR | 0.115
< 10 | 18G7H6A1 (antibody, human IgG1, kappa, V domains shown) VH: EVQLVQSGAEVKKPGESLRISCKGSGYSFTAYWIEWVRQAPGKGLEWIGEILPGSDSTNYNEKFKGHVTISADKSISTAYLQWSSLKASDTAVYYCARSGYYGSSQYWGQGTLVTVSS VL: DIVLTQSPASLAVSPGQRATITCRASESVDSYGNSFMHWYQQKPGQPPKLLIYLTSNLESGVPDRFSGSGSGTDFTLTINPVEANDAATYYCQQNAEDPRTFGGGTKLEIKR | 
